Key:
[1] = biological target: FLAG-tagged WAVE2 stably expressed in A431 cells (UniProt Q9Y6W5); assay: co-IP
[2] = biological target: Recombinant full-length WAVE2 tagged with GST at its COOH terminus (UniProt Q9Y6W5); assay: dual polarization interferometry
Recombinant full-length WAVE2 tagged with GST at its COOH terminus, sequence (Q9Y6W5 whole entry): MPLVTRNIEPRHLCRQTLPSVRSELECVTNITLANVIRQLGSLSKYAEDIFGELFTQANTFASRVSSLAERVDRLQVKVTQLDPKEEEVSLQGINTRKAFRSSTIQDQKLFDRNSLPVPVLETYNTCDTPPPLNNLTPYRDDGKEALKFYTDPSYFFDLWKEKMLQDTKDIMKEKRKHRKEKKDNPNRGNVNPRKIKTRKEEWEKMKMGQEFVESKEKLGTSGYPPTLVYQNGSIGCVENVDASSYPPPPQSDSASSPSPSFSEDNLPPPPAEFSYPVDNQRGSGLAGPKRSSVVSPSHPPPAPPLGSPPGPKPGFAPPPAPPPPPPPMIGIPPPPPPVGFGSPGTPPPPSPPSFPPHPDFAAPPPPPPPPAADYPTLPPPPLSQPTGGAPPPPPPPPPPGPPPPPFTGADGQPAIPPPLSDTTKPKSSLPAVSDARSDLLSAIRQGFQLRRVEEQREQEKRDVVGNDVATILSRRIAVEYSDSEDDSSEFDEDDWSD

FLAG-tagged WAVE2 stably expressed in A431 cells, sequence (Q9Y6W5 whole entry): as above

Substance	molar ratio of IRSp53 to WAVE2 in the purified complex [1]	Kd [2] [µM]
IRSp53, endogenous in A431 cells (from UniProt Q9UQB8 1-552) (natural protein)	0.0005	–
SH3 domain of IRSp53 (aa 363–521) (from UniProt Q9UQB8 363-521) (domain or fragment)	–	5.7

From PMC2063866
